The data set in a line: yeast display, Sf9 membrane polyspecificity reagent, FACS + sequencing; frameworks hold sequencing errors. Summed up: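 A nanobody's polyreactivity label depends on the gate it was sorted from. Yeast display cells were stained with 10% biotinylated, detergent-solubilized Sf9 membrane reagent for 1 hour at 4 °C, enriched on streptavidin microbeads and sorted by FACS. The low and high (top ~1%) gates were set on anti-HA fluorescence for expression and streptavidin fluorescence for reagent binding.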
In the case of “QFQLVDSGGGLVQAGGSLRLSCAASGSTFGYYAMGWYRQATGKERELVAAISWRGGSTSYADSVKGRFTISRDNAKNTVYLQMNSLIPEDTAVYLCAAGGDINKYGRQYRYDYWGQGTQVTVSS”, the “polyreactivity (PSR sort gate)” value is reported as “high polyreactivity”. With “QFQLVEAGGGLVQAGGSLRLSCAASGSIIPNYNMGWYRQAPAKETELVAAMSISGGTTYYADSVKGRFTISRDNAKNTVYLQMNSLKPEETAVYYCAAVEYYWFLGYYYRYDYWGQGTQVTVSS”, the “polyreactivity (PSR sort gate)” value is listed as “high polyreactivity”. With “QFQLVESAVVLVQAGGSLRLSCAASGGIFGSYAMGWYRQAPGKEMEFVAAIRYGSGSQYYADSVKGRFTISRDNAKNTVYLQMNSLKPEDTAVYYCATEYWGVYGYGFIYDYWGQGTQVTVSS”, the “polyreactivity (PSR sort gate)” value is “low polyreactivity”. With “QFQLVESCGGLVHAGGSLRLSCAASGSIFFSYAMGWYRQAPGKERELVAAISSGGSTYYADSVKGRFTISRDNAKNTVYLQMNSLKPEDTAVYYCAARGYRLVPVDFYYWGQGTQVTVSS”, the “polyreactivity (PSR sort gate)” value is reported as “low polyreactivity”. As for “QFQLVESCGGLVPAGGSLRLSCAASGRILSDYAMGWYRQAPGKERELVAVISWDGTNTYYADSVKGRFPISRDNAKNTVYLQMNSLKPEDTAVYYCAATGTSYYSAYDYWGQGTQVTVSS”, the entry is “low polyreactivity”; as for “QFQLVESGGALVQAGGSLRLSCAASGSTFTGYTMGWYRQAPGKERELVAAINWSGGRTYYADSVKGRFTISRDNAKNTVYLQMNSLKPDDTAVYYCAVRSRSLGGYLGQGTQVTVSS”, “high polyreactivity”; as for “QFQLVESGGGIVQAGGSLRLSCYASGTFYKYAMGWNTQAPGKERELVAAISWRGGRTYADSVKGRFTISRDNAKNTVYLQMNSLIPEDTAVYYCYKRFYPEHYYWGQGTQVTVSS”, “high polyreactivity”. As for “QFQLVESGGGLDQAGGSLRLSCAASGSIFWYYAMGWYRQAPGKERELVAAISISGSTYYADSVKGRFTISRDNAKNTVYLQMNSLKPEDTAVYYCAARKFFWRSNYDYWGQGTQVTVSS”, the entry is “low polyreactivity”. As for “QFQLVESGGGLDQAGGSLRLSCAATGSTFTSYAMGWYIQAPGKERELVAAITSRGGTYYADSVKGRFTISRDNAKNTVYLQMNSLKPEDTAVYYCAARATYKKYPYVKWYDYWGQGTQVTVSS”, the entry is “high polyreactivity”; as for “QFQLVESGGGLVHAVGSLRLSCAASGRTGKNAMGWYRQAPGKERELVAAIRYNGGSTYYADSVKGRFTISRDNAKNSVYLQMNSLKPEDTAVYYCAAAFRRHNGSAFNYWGQGTQVTVSS”, “high polyreactivity”.

As for “QFQLVESGGGLVQAGCSLRLSCAAYGSIFGGYAMGWYRQAPGKERELVAAISYRGASTYYADSVKGRFTISRDNAKNTVYLQMNILKPEDTAVYYCAVPARTRARVLYGYDYWGQGTQVTVSS”, the “polyreactivity (PSR sort gate)” value is given as “low polyreactivity”. Turning to “QFQLVESGGGLVQAGGILRLSCAASGSIFYHNAMGWSRQAPGKERELVAAITGSGGSTYYADSVKGRFTISRDNAKNTVYLQMNSLKPEDTAVYYCAADGYTKWWISWGYDYWGQGTQVTVSS”, the “polyreactivity (PSR sort gate)” value is listed as “low polyreactivity”. For the sequence “QFQLVESGGGLVQAGGRLRLSCAASGRIFRYSAMGWYRQAPGKERQLVASISSGGSTNYADSVKGRFTISRDNAKNTVYLQMNSLKQEDTAVYYCAARYWVSGFRAGYYWGQGTQVTVSS”, the “polyreactivity (PSR sort gate)” value is “high polyreactivity”. As for “QFQLVESGGGLVQAGGRLRLSCAASGSTFLPYAMGWYRQAPGKESELVAAIRGRGGRTYYADSVKGRFTISRANAKNTVYLQMNSLKPEDSAVYYCAADVKGLSWTYDSWGQGTQVTVSS”, the entry is “high polyreactivity”; as for “QFQLVESGGGLVQAGGSHRLSCAASGSIFFINAMGWYRQAPGKERELVASISQSGVSTYYADSVKGRFTISRDNAKNTVYFEMNSLKPEDTAVYYCATGPVRRARYVWSYTYYYWGQGTQVTVSS”, “low polyreactivity”.

For the sequence “QFQLVESGGGLVQAGGSLRISCAATGLIYYVYAMGWYRQAPGKESELVAAIRSGGSTNNADSVKGRFTISRDNAKNTVYLQMNRLKPEDTAVYYCAVDTWYFLFQYGYYQEGDYWGQGTQVTVSS”, the “polyreactivity (PSR sort gate)” value was “low polyreactivity”. For the sequence “QFQLVESGGGLVQAGGSLRLICAASGFIFWYNAMGWYRQSPGKEREFVAAISSGGSTTYADSVKGRFTISRDNALITVYLQMNSLKPEDTAVYYCAAGSYDYDYWGQGTQVTVSS”, the “polyreactivity (PSR sort gate)” value is on record as “low polyreactivity”.

As to “QFQLVESGGGLVQAGGSLRLSCAASGFIFSFYAMGWYRQAPGKERELVARINWTGGSTYYADSVKGRFTISRDNAKNSVYLQMNSLKPEDTAVYYCARPVRRIIGVTDEYWGQGTQVTVSS”, the “polyreactivity (PSR sort gate)” value was “low polyreactivity”. On to “QFQLVESGGGLVQAGGSLRLSCAASGFIIRVNAMAWYRQAPGTERQLVATITWNGGSTYYADSVKGRFTISRDNAKNTVYLQMNSLKPDDTAVYYCNRVRYRGYYPGPYSYSYDYWGQGTQVTVSS”, for which the “polyreactivity (PSR sort gate)” value is given as “low polyreactivity”.

For “QFQLVESGGGLVQAGGSLRLSCAASGFTFDNYVMGWYRQAPGKERELVAAISKSGTSTYYADSVKGRFTISRDNAKNTVYLQMNSLKPEDTAVYYCAAALPGYGDYYYWGQGTQVTVSS”, the “polyreactivity (PSR sort gate)” value is “high polyreactivity”. As to “QFQLVESGGGLVQAGGSLRLSCAASGFTFWYYAMGWYRQAPGKERELVARITSRGADTYADSVKGRFTISRDNAKNTVYLQMNSLKPEDTAVYYCAVDPGFSWYEQYDYWGQGTQVTVST”, the “polyreactivity (PSR sort gate)” value is “low polyreactivity”.

As to “QFQLVESGGGLVQAGGSLRLSCAASGFTFYYYTMGWYRQAPGKERELVAAITWRGGSTNYADSVKGRFTISRDNAKNTVYLQMNSLKPEDTAVYYCAAVTYWFWPGMDYWGQGTQVTVSS”, the “polyreactivity (PSR sort gate)” value is listed as “low polyreactivity”. Take “QFQLVESGGGLVQAGGSLRLSCAASGFTIYLYTMGWYRQAPGKERELVATISWSGASTYYADSVKGRFTISRDNAKNTVYLQMNSLKPEDTAVYYCATRYRYRYWGQGTQVTVSS”: the “polyreactivity (PSR sort gate)” value was “high polyreactivity”. Consider “QFQLVESGGGLVQAGGSLRLSCAASGGTFNQYAMGWYRQAPGKEREFVASISRRGGSTYYADSVKGRFTISRDNAKNTVDLQMNSLKPEDTAVYYCAADAFFRLDYYYWGQGTQVTVSS”, for which the “polyreactivity (PSR sort gate)” value was “high polyreactivity”. As for “QFQLVESGGGLVQAGGSLRLSCAASGIIFGNNAMGWYRQAPGKERELVAAIRWSTGTTYYADSVKGRFTISRDNAKNTVYLQMNSLKPEDTAVYYCAARLRREYGYWGQGTQVTVSS”, the entry is “high polyreactivity”; as for “QFQLVESGGGLVQAGGSLRLSCAASGIIFSLYAMGWYIQAPGKERELVAAITTGGRTYYADSVKGRFTISRDNAKNTVYFQMNSLKPEDTAVYYCAAQGPWQGGTTLSTNRGYWGQGTQVTVSS”, “high polyreactivity”.

As for “QFQLVESGGGLVQAGGSLRLSCAASGIILAYYAMGWYRKEPGKERELVSSINRSGGSTYYADSVKGRFTISRDNAKNTVYLQMISLKPEYTAVYYCAATNRGVGQRSYRYYYWGQGTQVSVSS”, the “polyreactivity (PSR sort gate)” value was “high polyreactivity”.

For “QFQLVESGGGLVQAGGSLRLSCAASGIMFGYYAMGWYRQAPGKERELVAALTRSGGSTYYADSVKGRFTISRDNAKNTVYLQLNSLKPEDTALYYCNGDDDGRVSSTIVEYWGQGTQVTVSS”, the “polyreactivity (PSR sort gate)” value was “low polyreactivity”. Take “QFQLVESGGGLVQAGGSLRLSCAASGITFFPYAMGWYRQAPGKERELVASISDGGGTNYADSVKGRFTISRDNAKNTVYLQMNSLKPEDTAVYYCATDASTYAYYGGDYWGQGTQVTVSS”: the “polyreactivity (PSR sort gate)” value was “low polyreactivity”.

On to “QFQLVESGGGLVQAGGSLRLSCAASGITFYGNAKGWYRQAPGKVREFVAAITVDGGSTYAVSVKGRFTISRDNAKNTVYLQMNSLKPEDTAVYYCNKAYLRRSLKSGYPYDSWGQGTQVTVSS”, for which the “polyreactivity (PSR sort gate)” value is “low polyreactivity”.

The record behind these values is the nanobody polyreactivity screen of Harvey et al. (2022).
